Laboratory results taken from article PMC10786891, “Massively parallel profiling of RNA-targeting CRISPR-Cas13d”.

Target: T1, EsCas13d, nuclease-dead (Eubacterium siraeum, UniProt B0MS50, R295A;H300A;R849A;H854A)
T1 sequence: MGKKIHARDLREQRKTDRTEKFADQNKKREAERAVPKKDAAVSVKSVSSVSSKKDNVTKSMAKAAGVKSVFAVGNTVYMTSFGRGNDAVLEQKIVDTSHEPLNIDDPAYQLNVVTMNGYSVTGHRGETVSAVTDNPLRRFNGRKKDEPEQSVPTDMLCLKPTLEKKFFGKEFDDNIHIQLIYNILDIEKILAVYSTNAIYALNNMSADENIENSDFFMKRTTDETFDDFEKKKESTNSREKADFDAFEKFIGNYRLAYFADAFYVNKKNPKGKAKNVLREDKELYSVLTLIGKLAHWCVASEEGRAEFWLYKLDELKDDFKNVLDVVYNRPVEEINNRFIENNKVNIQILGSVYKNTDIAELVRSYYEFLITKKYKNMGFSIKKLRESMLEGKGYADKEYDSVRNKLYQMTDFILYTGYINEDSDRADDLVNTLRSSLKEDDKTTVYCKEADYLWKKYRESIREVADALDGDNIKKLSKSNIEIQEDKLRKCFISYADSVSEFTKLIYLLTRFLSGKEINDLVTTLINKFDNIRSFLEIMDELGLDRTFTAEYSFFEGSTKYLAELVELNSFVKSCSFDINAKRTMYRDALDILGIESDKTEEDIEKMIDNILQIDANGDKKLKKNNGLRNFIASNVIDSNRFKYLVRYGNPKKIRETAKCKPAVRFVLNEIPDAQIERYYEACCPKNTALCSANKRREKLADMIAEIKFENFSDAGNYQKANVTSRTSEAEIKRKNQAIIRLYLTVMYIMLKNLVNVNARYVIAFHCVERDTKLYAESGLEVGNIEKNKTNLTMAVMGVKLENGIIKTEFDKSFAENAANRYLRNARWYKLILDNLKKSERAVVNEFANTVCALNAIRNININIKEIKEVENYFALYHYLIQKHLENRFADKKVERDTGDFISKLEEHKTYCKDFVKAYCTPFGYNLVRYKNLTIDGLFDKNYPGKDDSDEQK
Assay: crRNA (strand 1, pre-loaded); Mg2+; 40 mM Tris-HCl pH 7.5, 150 mM NaCl, 6 mM MgCl2, 1 mM DTT, 0.1% Tween-20, 0.2 mg/ml BSA; 25 C; 10 min per concentration, then washed
Conditions: tags: His6-TwinStrep-SUMO cleaved; N-terminal SNAP kept (SNAP-Surface 488); label: 3' end held by stalled T7 RNA polymerase

B1: target 1 insU 3' of 4,insA 3' of 3 (mixed)
RNA 1: CACCCGUGCAAAAAUGCAGGGGUCUAAAACUGAGCGGAUAACCUCUCUAUGG
RNA 2: GGGAAUGGAUCCACAUCUACGAAUUCGUACCAUAGAGAGGUUAUCCGCUUACACCGAGAUCGGAAGAGCACACGU
  Kd: 8 ± 0.3 nM

B2: target 1 C7A,A18C (mixed)
RNA 1: CACCCGUGCAAAAAUGCAGGGGUCUAAAACUGAGCGGAUAACCUCUCUAUGG
RNA 2: GGGAAUGGAUCCACAUCUACGAAUUCGUACCAUCGAGAGGUUAUACGCUCACCGAGAUCGGAAGAGCACACGU
  Kd: 70 ± 6 nM

B3: target 1 A1G,A9C (mixed)
RNA 1: CACCCGUGCAAAAAUGCAGGGGUCUAAAACUGAGCGGAUAACCUCUCUAUGG
RNA 2: GGGAAUGGAUCCACAUCUACGAAUUCGUACCAUAGAGAGGUUCUCCGCUCGCCGAGAUCGGAAGAGCACACGU
  Kd: 13.7 ± 2.3 nM

B4: target 2 MT 5'PFS UGG 3'PFS CGC (mixed)
RNA 1: CACCCGUGCAAAAUUGCAGGGGUCUAAAACCUUCUCCAAAUUGUUUCAUCCU
RNA 2: GGGAAUGGAUCCACAUCUACGAAUUCUGGAGGAUGAAACAAUUUGGAGAAGCGCAGAUCGGAAGAGCACACGU
  Kd: 5.8 ± 0.4 nM

B5: target 2 MT 5'PFS ACA 3'PFS CUC (mixed)
RNA 1: CACCCGUGCAAAAUUGCAGGGGUCUAAAACCUUCUCCAAAUUGUUUCAUCCU
RNA 2: GGGAAUGGAUCCACAUCUACGAAUUCACAAGGAUGAAACAAUUUGGAGAAGCUCAGAUCGGAAGAGCACACGU
  Kd: 6.7 ± 1 nM

B6: target 2 MT 5'PFS GUA 3'PFS ACC (mixed)
RNA 1: CACCCGUGCAAAAUUGCAGGGGUCUAAAACCUUCUCCAAAUUGUUUCAUCCU
RNA 2: GGGAAUGGAUCCACAUCUACGAAUUCGUAAGGAUGAAACAAUUUGGAGAAGACCAGAUCGGAAGAGCACACGU
  Kd: 22 ± 4 nM

B7: target 2 MT 5'PFS UUG 3'PFS UAU (mixed)
RNA 1: CACCCGUGCAAAAUUGCAGGGGUCUAAAACCUUCUCCAAAUUGUUUCAUCCU
RNA 2: GGGAAUGGAUCCACAUCUACGAAUUCUUGAGGAUGAAACAAUUUGGAGAAGUAUAGAUCGGAAGAGCACACGU
  Kd: 8.6 ± 0.8 nM

B8: target 2 MT 5'PFS CAC 3'PFS CAU (mixed)
RNA 1: CACCCGUGCAAAAUUGCAGGGGUCUAAAACCUUCUCCAAAUUGUUUCAUCCU
RNA 2: GGGAAUGGAUCCACAUCUACGAAUUCCACAGGAUGAAACAAUUUGGAGAAGCAUAGAUCGGAAGAGCACACGU
  Kd: 3.5 ± 0.4 nM

B9: target 2 MT 5'PFS UUG 3'PFS UAA (mixed)
RNA 1: CACCCGUGCAAAAUUGCAGGGGUCUAAAACCUUCUCCAAAUUGUUUCAUCCU
RNA 2: GGGAAUGGAUCCACAUCUACGAAUUCUUGAGGAUGAAACAAUUUGGAGAAGUAAAGAUCGGAAGAGCACACGU
  Kd: 12.8 ± 2 nM

B10: target 2 MT 5'PFS GAA 3'PFS UAC (mixed)
RNA 1: CACCCGUGCAAAAUUGCAGGGGUCUAAAACCUUCUCCAAAUUGUUUCAUCCU
RNA 2: GGGAAUGGAUCCACAUCUACGAAUUCGAAAGGAUGAAACAAUUUGGAGAAGUACAGAUCGGAAGAGCACACGU
  Kd: 12 ± 4 nM

B11: target 2 MT 5'PFS CAG 3'PFS UCC (mixed)
RNA 1: CACCCGUGCAAAAUUGCAGGGGUCUAAAACCUUCUCCAAAUUGUUUCAUCCU
RNA 2: GGGAAUGGAUCCACAUCUACGAAUUCCAGAGGAUGAAACAAUUUGGAGAAGUCCAGAUCGGAAGAGCACACGU
  Kd: 29 ± 8 nM

B12: target 2 MT 5'PFS UUG 3'PFS UAG (mixed)
RNA 1: CACCCGUGCAAAAUUGCAGGGGUCUAAAACCUUCUCCAAAUUGUUUCAUCCU
RNA 2: GGGAAUGGAUCCACAUCUACGAAUUCUUGAGGAUGAAACAAUUUGGAGAAGUAGAGAUCGGAAGAGCACACGU
  Kd: 10.9 ± 1.2 nM

B13: target 2 MT 5'PFS CAC 3'PFS CAC (mixed)
RNA 1: CACCCGUGCAAAAUUGCAGGGGUCUAAAACCUUCUCCAAAUUGUUUCAUCCU
RNA 2: GGGAAUGGAUCCACAUCUACGAAUUCCACAGGAUGAAACAAUUUGGAGAAGCACAGAUCGGAAGAGCACACGU
  Kd: 2.9 ± 0.4 nM

B14: target 2 MT 5'PFS GAA 3'PFS UAA (mixed)
RNA 1: CACCCGUGCAAAAUUGCAGGGGUCUAAAACCUUCUCCAAAUUGUUUCAUCCU
RNA 2: GGGAAUGGAUCCACAUCUACGAAUUCGAAAGGAUGAAACAAUUUGGAGAAGUAAAGAUCGGAAGAGCACACGU
  Kd: 7.3 ± 1.5 nM

B15: target 2 MT 5'PFS UUG 3'PFS UAC (mixed)
RNA 1: CACCCGUGCAAAAUUGCAGGGGUCUAAAACCUUCUCCAAAUUGUUUCAUCCU
RNA 2: GGGAAUGGAUCCACAUCUACGAAUUCUUGAGGAUGAAACAAUUUGGAGAAGUACAGAUCGGAAGAGCACACGU
  Kd: 14.3 ± 1.2 nM

B16: target 2 MT 5'PFS GUA 3'PFS ACG (mixed)
RNA 1: CACCCGUGCAAAAUUGCAGGGGUCUAAAACCUUCUCCAAAUUGUUUCAUCCU
RNA 2: GGGAAUGGAUCCACAUCUACGAAUUCGUAAGGAUGAAACAAUUUGGAGAAGACGAGAUCGGAAGAGCACACGU
  Kd: 10.6 ± 0.9 nM

B17: target 2 MT 5'PFS GGC 3'PFS UAA (mixed)
RNA 1: CACCCGUGCAAAAUUGCAGGGGUCUAAAACCUUCUCCAAAUUGUUUCAUCCU
RNA 2: GGGAAUGGAUCCACAUCUACGAAUUCGGCAGGAUGAAACAAUUUGGAGAAGUAAAGAUCGGAAGAGCACACGU
  Kd: 9.4 ± 1.2 nM

B18: target 2 MT 5'PFS AAA 3'PFS AUU (mixed)
RNA 1: CACCCGUGCAAAAUUGCAGGGGUCUAAAACCUUCUCCAAAUUGUUUCAUCCU
RNA 2: GGGAAUGGAUCCACAUCUACGAAUUCAAAAGGAUGAAACAAUUUGGAGAAGAUUAGAUCGGAAGAGCACACGU
  Kd: 5.2 ± 1 nM

B19: target 2 MT 5'PFS AAA 3'PFS AUG (mixed)
RNA 1: CACCCGUGCAAAAUUGCAGGGGUCUAAAACCUUCUCCAAAUUGUUUCAUCCU
RNA 2: GGGAAUGGAUCCACAUCUACGAAUUCAAAAGGAUGAAACAAUUUGGAGAAGAUGAGAUCGGAAGAGCACACGU
  Kd: 4.4 ± 0.8 nM

B20: target 2 MT 5'PFS GAA 3'PFS UAU (mixed)
RNA 1: CACCCGUGCAAAAUUGCAGGGGUCUAAAACCUUCUCCAAAUUGUUUCAUCCU
RNA 2: GGGAAUGGAUCCACAUCUACGAAUUCGAAAGGAUGAAACAAUUUGGAGAAGUAUAGAUCGGAAGAGCACACGU
  Kd: 7.8 ± 1 nM

B21: target 2 MT 5'PFS CAC 3'PFS CAG (mixed)
RNA 1: CACCCGUGCAAAAUUGCAGGGGUCUAAAACCUUCUCCAAAUUGUUUCAUCCU
RNA 2: GGGAAUGGAUCCACAUCUACGAAUUCCACAGGAUGAAACAAUUUGGAGAAGCAGAGAUCGGAAGAGCACACGU
  Kd: 1.3 ± 0.23 nM

B22: target 2 MT 5'PFS GGG 3'PFS AUU (mixed)
RNA 1: CACCCGUGCAAAAUUGCAGGGGUCUAAAACCUUCUCCAAAUUGUUUCAUCCU
RNA 2: GGGAAUGGAUCCACAUCUACGAAUUCGGGAGGAUGAAACAAUUUGGAGAAGAUUAGAUCGGAAGAGCACACGU
  Kd: 9 ± 0.8 nM

B23: target 2 MT 5'PFS UGU 3'PFS UAC (mixed)
RNA 1: CACCCGUGCAAAAUUGCAGGGGUCUAAAACCUUCUCCAAAUUGUUUCAUCCU
RNA 2: GGGAAUGGAUCCACAUCUACGAAUUCUGUAGGAUGAAACAAUUUGGAGAAGUACAGAUCGGAAGAGCACACGU
  Kd: 25 ± 4 nM

B24: target 2 MT 5'PFS GUA 3'PFS ACA (mixed)
RNA 1: CACCCGUGCAAAAUUGCAGGGGUCUAAAACCUUCUCCAAAUUGUUUCAUCCU
RNA 2: GGGAAUGGAUCCACAUCUACGAAUUCGUAAGGAUGAAACAAUUUGGAGAAGACAAGAUCGGAAGAGCACACGU
  Kd: 10.7 ± 1.6 nM

B25: target 2 MT 5'PFS CAU 3'PFS AGG (mixed)
RNA 1: CACCCGUGCAAAAUUGCAGGGGUCUAAAACCUUCUCCAAAUUGUUUCAUCCU
RNA 2: GGGAAUGGAUCCACAUCUACGAAUUCCAUAGGAUGAAACAAUUUGGAGAAGAGGAGAUCGGAAGAGCACACGU
  Kd: 2.8 ± 0.4 nM

B26: target 2 MT 5'PFS CUG 3'PFS CAA (mixed)
RNA 1: CACCCGUGCAAAAUUGCAGGGGUCUAAAACCUUCUCCAAAUUGUUUCAUCCU
RNA 2: GGGAAUGGAUCCACAUCUACGAAUUCCUGAGGAUGAAACAAUUUGGAGAAGCAAAGAUCGGAAGAGCACACGU
  Kd: 2.4 ± 0.4 nM

B27: target 2 MT 5'PFS ACA 3'PFS CUU (mixed)
RNA 1: CACCCGUGCAAAAUUGCAGGGGUCUAAAACCUUCUCCAAAUUGUUUCAUCCU
RNA 2: GGGAAUGGAUCCACAUCUACGAAUUCACAAGGAUGAAACAAUUUGGAGAAGCUUAGAUCGGAAGAGCACACGU
  Kd: 12 ± 4 nM

B28: target 2 MT 5'PFS AAA 3'PFS AUC (mixed)
RNA 1: CACCCGUGCAAAAUUGCAGGGGUCUAAAACCUUCUCCAAAUUGUUUCAUCCU
RNA 2: GGGAAUGGAUCCACAUCUACGAAUUCAAAAGGAUGAAACAAUUUGGAGAAGAUCAGAUCGGAAGAGCACACGU
  Kd: 3.6 ± 0.7 nM
